How the values were obtained:
Assay in all cases: capillary electrophoresis enzyme assay, Michaelis-Menten kinetics (Km)
[1] = target: T1, galactosylceramide (cerebroside) sulphotransferase (CST) (Homo sapiens, UniProt Q99999); assay type: biochemical
T1 construct: gene GAL3ST1
T1 sequence (Q99999 1-423): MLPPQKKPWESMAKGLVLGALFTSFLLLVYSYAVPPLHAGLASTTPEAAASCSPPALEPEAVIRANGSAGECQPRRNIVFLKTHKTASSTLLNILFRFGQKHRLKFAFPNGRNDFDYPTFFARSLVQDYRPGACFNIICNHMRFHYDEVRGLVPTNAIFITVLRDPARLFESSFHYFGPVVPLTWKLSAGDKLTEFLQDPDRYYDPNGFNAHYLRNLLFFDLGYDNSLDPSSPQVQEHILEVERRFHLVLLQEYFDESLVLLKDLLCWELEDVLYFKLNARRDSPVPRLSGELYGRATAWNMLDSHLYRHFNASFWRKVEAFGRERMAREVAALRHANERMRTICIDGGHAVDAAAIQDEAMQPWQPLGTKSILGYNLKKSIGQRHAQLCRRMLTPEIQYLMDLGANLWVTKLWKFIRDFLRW

[2] = substrate: CCCCCCCCCCCCCCCCCCC(=O)N[C@@H](CO[C@H]1O[C@H](CO)[C@H](O)[C@H](O)[C@H]1O)[C@H](O)[C@H](O)CCCCCCCCCCCCCC; assay type: biochemical, Homo sapiens; conditions: PAPS
[3] = substrate: CCCCCCCCCCCCCC[C@@H](O)[C@@H](O)[C@H](CO[C@H]1O[C@H](CO)[C@H](O)[C@H](O)[C@H]1O)NC(=O)CCCC; assay type: biochemical, Homo sapiens; conditions: PAPS

Molecule	Km [1]	Km [2]	Vmax [2]	Km [3]	Vmax [3]
CCCCCCCCCCCCCCCCCCCCCCCCCC(=O)N[C@@H](CO[C@H]1O[C@H](CO)[C@H](O)[C@H](O)[C@H]1O)[C@H](O)[C@H](O)CCCCCCCCCCCCCC [compound 18, KRN7000]	438 µM				
CCCCCCCCCCCCCCCCCCCCCCCCCC(=O)N[C@@H](CO[C@@H]1O[C@H](CO)[C@H](O)[C@H](O)[C@H]1O)[C@H](O)[C@H](O)CCCCCCCCCCCCCC [compound 10, β-KRN7000]	550 µM				
galactosylceramide (cerebroside) sulphotransferase (CST) (Homo sapiens) (protein) MLPPQKKPWESMAKGLVLGALFTSFLLLVYSYAVPPLHAGLASTTPEAAASCSPPALEPEAVIRANGSAGECQPRRNIVFLKTHKTASSTLLNILFRFGQKHRLKFAFPNGRNDFDYPTFFARSLVQDYRPGACFNIICNHMRFHYDEVRGLVPTNAIFITVLRDPARLFESSFHYFGPVVPLTWKLSAGDKLTEFLQDPDRYYDPNGFNAHYLRNLLFFDLGYDNSLDPSSPQVQEHILEVERRFHLVLLQEYFDESLVLLKDLLCWELEDVLYFKLNARRDSPVPRLSGELYGRATAWNMLDSHLYRHFNASFWRKVEAFGRERMAREVAALRHANERMRTICIDGGHAVDAAAIQDEAMQPWQPLGTKSILGYNLKKSIGQRHAQLCRRMLTPEIQYLMDLGANLWVTKLWKFIRDFLRW		521 µM	0.0519 µmol/min/mg	358 µM	0.0449 µmol/min/mg

— PMC7470129, “Synthesis and structure-activity relationships of cerebroside analogues as substrates of cerebroside sulphotransferase and discovery of a competitive inhibitor” (Journal of Enzyme Inhibition and Medicinal Chemistry, 2020)
